Numbering of substitutions follows the chain as printed. Numbers in names are those of the source. Each block holds one binder with its values, some of them ahead of it.
What was measured:
[1] = target: T1, mouse L1CAM (purified extracellular domain with S1 tag) (mouse, UniProt P11627 20-1123); assay: competitive ELISA with mouse L1CAM
T1 construct: extracellular domain; also called mouse L1CAM monomer; not shown: S1 tag from the pJEX2T vector

[2] = target: T2, human L1CAM (purified extracellular domain) (human, UniProt P32004 20-1112); assay: competitive ELISA (soluble human L1CAM against coated human L1CAM)
T2 construct: range 1-1112; Expressed in HEK293T from pJK-dhfr2-L1-monomer; The stated range 1-1112 begins at residue 1 of the precursor; no signal peptide limits are stated; also called human L1CAM antigen
Procedure: (§1) The affinities of the purified antibodies for human L1CAM were measured by competitive ELISA. Human L1CAM was prepared at a density of 1×10⁻⁶ M and serially diluted to 1×10⁻¹¹ M using a PBS buffer solution. Respective antibodies were prepared by diluting them in PBS buffer solution at particular concentrations according to their binding capacity. The antigens and antibodies thus diluted were reacted with each other at the same volume ratio, and allowed to react at room temperature for 2 hours.
(§2) 96-well plates (MaxiSorp, Nunc) were coated using the purified human L1CAM which were diluted in a buffer solution (15 mM Na₂CO₃, 34.84 mM NaHCO₃, pH 9.6) at a concentration of 100 ng/well, at 4° C. overnight. Next day, the wells were washed with 0.05% PBS-T buffer solution twice. Difco skim milk (BD) was dissolved in 0.05% PBS-T buffer solution at a concentration of 2%, and 200 μl thereof was added to each well, followed by incubation at room temperature for 1 hour. Then, the wells were washed with 0.05% PBS-T buffer solution twice. To the plate, 100 it of the antigen/antibody reactant that were reacted for 2 hours was added and allowed to react at room temperature for 1 hour. Then, the wells were washed with 0.05% PBS-T buffer solution three times to remove non-antigen bound antibodies. Goat anti-human IgG(Fc)-HRP (Pierce, 1/5000) that specifically recognizes the Fc region of human antibody was added as a secondary antibody, and allowed to react at room temperature for 1 hour. Then, the wells were washed with 0.05% PBS-T buffer solution four times to remove the remaining secondary antibodies. […] Then, 50 μl of 2.5 M H₂SO₄ solution was added to each well to terminate the enzymatic reaction. After terminating the reaction, absorbance was measured at 450 nm (VERSAmax microplate reader, Molecular Devices).

[3] = target: T2, human L1CAM (purified extracellular …); assay: competitive ELISA
Procedure: as §1, §2
Affinity of the purified Ab417 antibody for human L1CAM was measured by competitive ELISA in the same manner as in Example 3-2.

[4] = target: T1, mouse L1CAM (purified extracellular …); assay: Octet RED (called SPR in the filing), antibody on AHC sensor, soluble mouse L1CAM
Procedure: (§3) In addition to the competitive ELISA, SPR (surface […] resonance) was measured using Octet RED (ForteBio, USA) according to the manufacturer's protocol to determine the affinities of Ab417 antibody and Ab4M antibody for human and mouse L1CAM. […] AHC (anti-human IgG Fc capture) sensor chip was used to analyze binding kinetics of the antibodies to antigens by examining changes in refractive index which occurs upon association and dissociation of antibody and antigen while transferring the sensor chip to PBS solution, antibody, PBS solution, antigen, and PBS solution in this order.

[5] = target: T2, human L1CAM (purified extracellular …); assay: Octet RED (called SPR in the filing), antibody on AHC sensor, soluble human L1CAM
Procedure: as §3

[6] = target: T1, mouse L1CAM (purified extracellular …); assay: Octet RED, antibody on AHC sensor, soluble mouse L1CAM
Procedure: (§4) Affinities of Ab417, Ab417-H6L2 mutant, and Ab417-H6L6 mutant for human and mouse L1CAM were examined using Octet RED (fortebio). […] Each 200 it thereof was added to opaque 96-well plate to prevent light transmission. AHC (anti-human IgG Fc capture) sensor chip was used to analyze binding kinetics of the antibodies to antigens by examining changes in refractive index which occurs upon association and dissociation of antibody and antigen while transferring the sensor chip to PBS solution, antibody, PBS solution, antigen, and PBS solution in this order.
(§5) Despite amino acid substitution, there were no changes in the affinities of these antibodies (Table 4), and there were also no changes in the affinities of these antibodies for mouse L1CAM (Table 5).

[7] = target: T2, human L1CAM (purified extracellular …); assay: Octet RED, antibody on AHC sensor, soluble human L1CAM
Procedure: as §4, §5

[8] = target: T1, mouse L1CAM (purified extracellular …); assay: indirect ELISA on coated mouse L1CAM, mutant IgG in culture supernatant, relative to Ab4
Excerpt: The expression vectors of respective mutants were obtained in a large amount, and transfected to human embryonic kidney HEK293T cells using Lipofectamine 2000 (invitrogen), followed by culture. The transfected cells produce and secrete whole antibodies out of the cells, and the culture supernatants were collected and subjected to indirect ELISA as follows. 96-well plates (MaxiSorp, Nunc) were coated using the purified extracellular domain of human L1CAM (hereinafter, referred to as ‘human L1CAM’) and the extracellular domain of purified mouse L1CAM (hereinafter, referred to as ‘mouse L1CAM’) as antigens, which were diluted in a buffer solution (15 mM Na₂CO₃, 34.84 mM NaHCO₃, pH 9.6) at a concentration of 100 ng/well, at 4° C. overnight. Next day, the plate was washed with 0.05% PBS-T buffer solution twice. Difco skim milk (BD) was dissolved in 0.05% PBS-T buffer solution at a concentration of 2%, and 200 μl thereof was added to each well, followed by incubation at 37° C. for 1 hour. Then, the wells were washed with 0.05% PBS-T buffer solution twice. To the plate, 100 μl of the supernatant was added and allowed to react at 37° C. for 1 hour. Then, the wells were washed with 0.05% PBS-T buffer solution three times to remove non-antigen bound antibodies. Goat anti-human IgG(Fc)-HRP (Pierce, 1/5000) that specifically recognizes the Fc region of human antibody was added as a secondary antibody, and allowed to react at 37° C. for 1 hour. Then, the wells were washed with 0.05% PBS-T buffer solution four times to remove the remaining secondary antibodies.
Then, 50 μl of 2.5 M H₂SO₄ solution was added to each well to terminate the enzymatic reaction. After terminating the reaction, absorbance was measured at 450 nm (VERSAmax microplate reader, Molecular Devices).

[9] = target: T1, mouse L1CAM (purified extracellular …); assay: not stated there (summary of the filing's affinity measurements)
[10] = target: T2, human L1CAM (purified extracellular …); assay: Octet RED
Procedure: as §3

[11] = target: T2, human L1CAM (purified extracellular …); assay: not stated there (summary of the filing's affinity measurements); rounded summary value, no assay named

T2 sequence (P32004 20-1112 limits assumed, form in doubt): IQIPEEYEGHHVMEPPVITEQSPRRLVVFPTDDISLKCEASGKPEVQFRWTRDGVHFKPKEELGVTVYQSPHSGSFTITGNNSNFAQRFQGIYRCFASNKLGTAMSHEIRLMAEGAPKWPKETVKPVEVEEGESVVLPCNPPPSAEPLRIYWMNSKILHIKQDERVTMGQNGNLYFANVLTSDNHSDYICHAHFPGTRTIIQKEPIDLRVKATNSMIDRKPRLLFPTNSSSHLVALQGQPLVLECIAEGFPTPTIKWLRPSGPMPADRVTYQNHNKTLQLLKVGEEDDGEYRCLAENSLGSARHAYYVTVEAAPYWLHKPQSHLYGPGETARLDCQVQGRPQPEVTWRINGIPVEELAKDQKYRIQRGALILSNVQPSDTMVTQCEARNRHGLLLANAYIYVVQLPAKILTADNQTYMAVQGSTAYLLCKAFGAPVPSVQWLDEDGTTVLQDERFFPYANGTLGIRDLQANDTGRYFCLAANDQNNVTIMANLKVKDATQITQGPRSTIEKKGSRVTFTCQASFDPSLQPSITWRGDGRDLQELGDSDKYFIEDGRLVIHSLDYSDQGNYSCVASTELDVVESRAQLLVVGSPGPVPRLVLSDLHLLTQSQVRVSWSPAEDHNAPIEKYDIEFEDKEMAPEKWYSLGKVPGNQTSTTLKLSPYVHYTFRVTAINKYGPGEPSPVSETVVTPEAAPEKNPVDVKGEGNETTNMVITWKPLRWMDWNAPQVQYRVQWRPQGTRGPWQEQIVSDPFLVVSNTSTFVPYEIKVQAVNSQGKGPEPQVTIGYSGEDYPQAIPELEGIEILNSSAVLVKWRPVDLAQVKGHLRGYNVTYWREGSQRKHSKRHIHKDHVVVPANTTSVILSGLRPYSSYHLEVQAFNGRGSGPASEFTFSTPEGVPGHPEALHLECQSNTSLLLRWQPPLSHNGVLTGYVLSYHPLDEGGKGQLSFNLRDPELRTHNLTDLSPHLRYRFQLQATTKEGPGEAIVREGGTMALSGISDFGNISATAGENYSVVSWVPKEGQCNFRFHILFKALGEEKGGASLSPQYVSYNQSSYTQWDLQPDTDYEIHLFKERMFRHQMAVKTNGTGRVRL
T1 sequence (P11627 20-1123): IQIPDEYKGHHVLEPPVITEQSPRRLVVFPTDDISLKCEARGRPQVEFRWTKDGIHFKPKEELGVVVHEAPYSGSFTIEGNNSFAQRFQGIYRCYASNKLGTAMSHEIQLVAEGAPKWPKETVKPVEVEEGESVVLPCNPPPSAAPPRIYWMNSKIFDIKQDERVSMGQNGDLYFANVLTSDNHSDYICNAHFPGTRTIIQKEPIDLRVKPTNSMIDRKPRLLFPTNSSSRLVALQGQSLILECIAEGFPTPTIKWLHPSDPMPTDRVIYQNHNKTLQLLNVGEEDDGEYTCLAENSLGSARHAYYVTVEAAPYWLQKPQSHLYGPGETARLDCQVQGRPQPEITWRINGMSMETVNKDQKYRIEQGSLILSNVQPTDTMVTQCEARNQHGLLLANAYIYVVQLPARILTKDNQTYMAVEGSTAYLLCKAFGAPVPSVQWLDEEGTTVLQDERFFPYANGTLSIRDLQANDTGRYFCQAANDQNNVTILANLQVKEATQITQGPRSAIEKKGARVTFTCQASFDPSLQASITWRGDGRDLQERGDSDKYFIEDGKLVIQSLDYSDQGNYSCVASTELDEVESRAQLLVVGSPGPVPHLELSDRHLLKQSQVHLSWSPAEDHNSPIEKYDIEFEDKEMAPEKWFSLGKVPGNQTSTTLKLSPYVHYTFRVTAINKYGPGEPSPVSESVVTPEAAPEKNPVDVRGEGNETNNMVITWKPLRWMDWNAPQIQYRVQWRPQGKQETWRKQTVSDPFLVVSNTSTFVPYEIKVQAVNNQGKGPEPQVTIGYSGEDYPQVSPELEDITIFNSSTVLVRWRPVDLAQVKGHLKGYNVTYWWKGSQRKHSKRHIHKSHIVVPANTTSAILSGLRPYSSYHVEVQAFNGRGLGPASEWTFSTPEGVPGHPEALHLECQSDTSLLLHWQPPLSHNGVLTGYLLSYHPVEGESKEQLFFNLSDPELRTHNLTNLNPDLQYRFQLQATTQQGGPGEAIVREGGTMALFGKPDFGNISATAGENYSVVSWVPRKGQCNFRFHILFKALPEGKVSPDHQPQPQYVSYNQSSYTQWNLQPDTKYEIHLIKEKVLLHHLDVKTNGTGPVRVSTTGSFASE

- Kd [6]: 0.0984 nM
- koff [6]: 2.11e-05 s⁻¹
- kon [6]: 214000 M⁻¹ s⁻¹
- Kd [7]: 0.246 nM
- koff [7]: 3.64e-05 s⁻¹
- kon [7]: 148000 M⁻¹ s⁻¹
B3: Ab417-H6L6 antibody (antibody, V domains shown)
VH: EVQLVESGGGVVQPGGSLRLSCAASGFTFSRFGMHWVRQAPGKGLEWVAFISNEGSNKYYADSVKGRFTISRDNSANTLYLQMNSLRAEDTAVYYCARGRAYGSGSLFDPWGQGTLVTVSS
VL: DIQLTQSPSSLSASVGDRVTITCRASRTISSYVNWYQQKPGQAPESLIYAASNLHSGVPSRFSGSGSGTDFTLTISSLQPEDFATYYCQQSIGRGVVTFGQGTKLEIK
notes: L6 is the Ab417 VK with I31S, R37Q, R39K and K42Q; also called Ab417-H6L6 mutant; H6L6 mutant

- binding result [8]: no binding
B7: Y98A (antibody, V domains shown)
VH: B3 VH with G16R, F50V, E54D, A76K, A88P, A101H, Y102A
VL: DIQLTQSPSSLSASVGDRVTITCRASRTISIYVNWYRQRPGKAPESLIYAASNLHSGVPSRFSGSGSGTDFTLTVSSLQPEDFGTYYCQQTHDTRQYTFGQGTKLEIK
notes: whole IgG; also called Ab4 VH Y98A (HCDR3 alanine mutant); copies: 2 + 2

- Kd [2]: 18 nM
B8: V50F/H97A mutant of Ab4 antibody (antibody, name in Kabat numbering, V domains shown)
VH: B3 VH with G16R, E54D, A76K, A88P
VL: B7 VL
notes: also called VH V50F/H97A mutant

The next lines start with the binder.

B1: Ab4M antibody (antibody, IgG1, V domains shown)
VH: B3 VH with G16R, E54D, A76K, A88P
VL: B7 VL with V75I, G84A, D93A
notes: Ab4 with V50F and H97A in VH and V75I, G84A and D93A in VK; Whole IgG (IgG1 vector pdCMV-dhfrC-Ab4M)
- Kd [1]: 0.22 nM
- fold higher affinity than Ab4 [1]: ~8 fold
- Kd [2]: 2.9 nM
- fold higher affinity than Ab4 [3]: ~45 fold
- Kd [4]: 0.0893 nM
- koff [4]: 2.22e-05 s⁻¹
- kon [4]: 249000 M⁻¹ s⁻¹
- Kd [5]: 0.33 nM
- koff [5]: 4.3e-05 s⁻¹
- kon [5]: 130000 M⁻¹ s⁻¹

B2: Ab417-H6L2 antibody (antibody, V domains shown)
VH: B3 VH
VL: B3 VL with Q37R, K39R, Q42K
notes: H6 is the Ab417 VH with R16G, D54E, K76A and P88A; L2 is the Ab417 VK with I31S; also called Ab417-H6L2 mutant; H6L2 mutant
- Kd [6]: 0.131 nM
- koff [6]: 2.67e-05 s⁻¹
- kon [6]: 204000 M⁻¹ s⁻¹
- Kd [7]: 0.22 nM
- koff [7]: 3.22e-05 s⁻¹
- kon [7]: 146000 M⁻¹ s⁻¹

B4: G99A (antibody, V domains shown)
VH: B3 VH with G16R, F50V, E54D, A76K, A88P, A101H, G103A
VL: B7 VL
notes: whole IgG; also called Ab4 VH G99A (HCDR3 alanine mutant); copies: 2 + 2
- binding result [8]: no binding

B5: D93A mutant of Ab4 antibody (antibody, IgG1, V domains shown)
VH: B3 VH with G16R, F50V, E54D, A76K, A88P, A101H
VL: B7 VL with D93A
notes: Whole IgG made in the pdCMV-dhfrC-Ab4 vector (IgG1); also called VK D93A mutant
- Kd [2]: 30 nM

B6: R96A (antibody, V domains shown)
VH: B3 VH with G16R, F50V, E54D, A76K, A88P, R100A, A101H
VL: B7 VL
notes: whole IgG; also called Ab4 VH R96A (HCDR3 alanine mutant); copies: 2 + 2
- binding result [8]: no binding

B9: Ab417 antibody (antibody, V domains shown)
VH: B3 VH with G16R, E54D, A76K, A88P
VL: B3 VL with S31I, Q37R, K39R, Q42K
notes: Whole IgG expressed from pdCMV-dhfrC-Ab417; also called IgG form of Ab4M-18 (codon-optimised)
- Kd [9]: 0.1 nM
- Kd [1]: 0.21 nM
- fold higher affinity than Ab4 [1]: ~8 fold
- Kd [2]: 1.2 nM
- fold higher affinity than Ab4M [10]: ~2 fold
- fold higher affinity than Ab4 [3]: ~92 fold
- fold higher affinity than Ab4M [3]: ~2.4 fold
- Kd [6]: 0.108 nM
- koff [6]: 2.64e-05 s⁻¹
- kon [6]: 244000 M⁻¹ s⁻¹
- Kd [4]: 0.0348 nM
- koff [4]: 8.1e-06 s⁻¹
- kon [4]: 233000 M⁻¹ s⁻¹
- Kd [11]: 0.2 nM
- Kd [5]: 0.18 nM
- koff [5]: 2.33e-05 s⁻¹
- kon [5]: 127000 M⁻¹ s⁻¹
- Kd [7]: 0.239 nM
- koff [7]: 4.51e-05 s⁻¹
- kon [7]: 189000 M⁻¹ s⁻¹

B10: H97A mutant of Ab4 antibody (antibody, IgG1, name in Kabat numbering, V domains shown)
VH: B3 VH with G16R, F50V, E54D, A76K, A88P
VL: B7 VL
notes: Whole IgG made in the pdCMV-dhfrC-Ab4 vector (IgG1); also called VH H97A mutant of Ab4
- Kd [2]: 29 nM
